The text below walks through data of the nanobody polyreactivity screen of Harvey et al. (2022).

This data set can be described thus: yeast display, Sf9 membrane polyspecificity reagent, FACS + sequencing; frameworks hold sequencing errors. In a few lines: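 Genes from sorted yeast were amplified by colony PCR, read by MiSeq 2 × 250 sequencing and filtered on CDR length. These cells carried a synthetic nanobody library in Saccharomyces cerevisiae BJ5465 and were sorted by FACS into low and high (top ~1%) gates on anti-HA and streptavidin fluorescence. Polyreactivity is labelled according to the gate of origin.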
For “QVQLVESGGGLVQAGGSLRLSCAASGRTFSWYAMGWYRQAPGKERELVAAISSSGGSTYYADSVKGRFTISRDNAKNTVYLQMNSLKPEDTAVYYCAVRYYSSLSQRYYSWGQGTQVTVSS”, the “polyreactivity (PSR sort gate)” value is on record as “high polyreactivity”.
In the case of “QVQLVESGGGLVQAGGSLRLSCAASGRTFSWYVMGLYRQAPGKERELVASISGSGGSTYYADSVKGRFTISRDNAKNTVYLQMNSLKPEDTAVYYCARDYFFRSRSDYWGQGTQVTVSS”, the “polyreactivity (PSR sort gate)” value is “high polyreactivity”.
Regarding “QVQLVESGGGLVQAGGSLRLSCAASGRTFSWYVMGWSRQAPGKERALVAAISWNGGRTYYADSVKGRFTISRDNAKNTVYLQMNRLKPEDTAVYYCATGPDPKYDYWGQGTQVTVSS”, the “polyreactivity (PSR sort gate)” value is reported as “high polyreactivity”.
In the case of “QVQLVESGGGLVQAGGSLRLSCAASGRTFSYNAIGWYRQAPGKERTNYADSVKGRFTISRDNAKNTVYLQMNSLKPEDTAVYYCAVEPYLSYPPTSIDNDYDYWGQGTQVTVSS”, the “polyreactivity (PSR sort gate)” value is “low polyreactivity”.
For the sequence “QVQLVESGGGLVQAGGSLRLSCAASGRTFSYNTMGWYRQAPGKERELVAAIDSDGSTNYADSVKGRFTISRDNAKNTVYLQMNSLKPEDTAVYYCAADRFQCGFWWLEYWGQGTQVTVSS”, the “polyreactivity (PSR sort gate)” value is “high polyreactivity”.
On to “QVQLVESGGGLVQAGGSLRLSCAASGRTFSYYAMGWYRPAPGKEREFVAAISSTGTSTYYADSVKGRFTISRDNAKNTVYLQMNSLKPEDTAVYYCNARVATYRLHSKFYYWGQGTQVTVSS”, for which the “polyreactivity (PSR sort gate)” value was “high polyreactivity”.
Take “QVQLVESGGGLVQAGGSLRLSCAASGRTFSYYAMGWYRQAPGKERELGAANSGGGRTNYADSVKGRFTISRDNAKNTVYLQMNSLKPEDTAVYYCAAGASRKYQYYSRSYDYWGQGTQVTVSS”: the “polyreactivity (PSR sort gate)” value is given as “high polyreactivity”.
Regarding “QVQLVESGGGLVQAGGSLRLSCAASGRTFSYYAMGWYRQAPGKERELVARITYRGGRTYYADSVKGRFTISRDNAKNTVYLQMNSLKPEDTAVYYCATTSWRYGYDYWGQGSQVTVSS”, the “polyreactivity (PSR sort gate)” value was “high polyreactivity”.
In the case of “QVQLVESGGGLVQAGGSLRLSCAASGRTFSYYTLGWYRQAPGKERELVARISNRGTNTYYADSVKGRFTISRDNAKNTVYLQMNSLKPEDTAVYYCAAYTPPVYWLTRAIRGYYWGQGTQVTVSS”, the “polyreactivity (PSR sort gate)” value is “low polyreactivity”.
In the case of “QVQLVESGGGLVQAGGSLRLSCAASGRTFSYYTMGWYRQAPGKERQLVARISNRGTNTYYADSVKGRFTISRDNAKNTVYLQMNSLKPEDTAVYYCAKYYYTSIVGYDSWGQGTQVTVSS”, the “polyreactivity (PSR sort gate)” value was “low polyreactivity”.
The entry for “QVQLVESGGGLVQAGGSLRLSCAASGRTFTFYAMGWYRQAPGKERELVATISYSGGRTYYADSVKGRFTISRDNAKNTVYLQMNSLKPEDTAVYYCATSVSGPWWKLYYWGQGTQVTVSS” is “low polyreactivity”; for “QVQLVESGGGLVQAGGSLRLSCAASGRTFTGNAMGWYRQAPGKERELVAAISTSGTRTSYADSVKGRFTISRDNAKNTVYLQMNSLKPEDTAVYYCAALRKSLYRTYTYDYWGQGTQVTVSS” it is “high polyreactivity”; for “QVQLVESGGGLVQAGGSLRLSCAASGRTFTGNAMGWYRQAPGKVRELVADINLSGGDTYYADSVKGRFTISRDNAKNTVYLQMNSLKPEDTAVYYCAADIVYSSDYGPGDYWGQGTQVTVSS” it is “high polyreactivity”.
With “QVQLVESGGGLVQAGGSLRLSCAASGRTFTGYAMGWYRQAPGKERELVAAITSNGARTYYADSVKGRFTISRDNAKNTVYLQMNSLKPEDTAVYYCNRVRVYTHTAWGDDYWGQGTQVTVSS”, the “polyreactivity (PSR sort gate)” value is “low polyreactivity”.
“QVQLVESGGGLVQAGGSLRLSCAASGRTFTGYAMGWYRQAPGKERELVAGISRRGGSTNYADSVKGRFTISRDNSKNTVYLQMNSLKQEDPAVYYCKKRYSLWDEDYWGQGTQVTVSS”: the “polyreactivity (PSR sort gate)” value is “high polyreactivity”.
The entry for “QVQLVESGGGLVQAGGSLRLSCAASGRTFTHYAMGWYRQAPGKERELVAAISRSGGTTYYADSVKGRFTISRDNAKNTVYLQMNSLKPEDTAVYYCAARWWYRYNYDYWGQGTQVTVSS” is “high polyreactivity”; for “QVQLVESGGGLVQAGGSLRLSCAASGRTFTINAMGWYRQAPGKERELVATISYSGGSTRYADSVKGRFTISRDNAKNTVYLQMNSLQPDDTAVYYCAADAGYYGRWYGHGYGYWGQGTQVTVSS” it is “high polyreactivity”.
Take “QVQLVESGGGLVQAGGSLRLSCAASGRTFTKYAMGWYRQAPGKERELVAAISNSGGSTFYADSVKGRFTISRDNAKNTVYLQMNSLKPEDTAVYYCAVDLGDTQYVPFDYWGQGTQVTVSS”: the “polyreactivity (PSR sort gate)” value is listed as “low polyreactivity”.
As for “QVQLVESGGGLVQAGGSLRLSCAASGRTFTLYTMGWYRQAPGKERELVAAIRYSGGSTYYADSVKGRFTISRDNAKNTVYLHMNSLKPEDTAVYYCAARSYYYGFLYRYDYWGQGTQVTVSS”, the “polyreactivity (PSR sort gate)” value was “low polyreactivity”.
Regarding “QVQLVESGGGLVQAGGSLRLSCAASGRTFTNYAMGWYRQAPGKERELVAAAITVGGGRTYYADSVKGRFTISRDNAKNTVYLQMNSLKPEDTAVYYCATDFGTYWYEYWGQGTQVTVSS”, the “polyreactivity (PSR sort gate)” value is reported as “high polyreactivity”.
In the case of “QVQLVESGGGLVQAGGSLRLSCAASGRTFTRNAMGWYRQAPGKERELVAVITSSGRTNYADSVKGRFTISRDNAKKTVYLQMNSLKPEDTAVYYCNKVSARYPYPLYDYWGQGTQVTVSS”, the “polyreactivity (PSR sort gate)” value is on record as “high polyreactivity”.
For the sequence “QVQLVESGGGLVQAGGSLRLSCAASGRTFTRNAMGWYRQAPGKERELVAVITSSGRTNYADSVKGRFTISRDNAKNTVYLQMNSLKPEDTAVYYCNKVSARYPYPLYDYWGQGTQVTVSS”, the “polyreactivity (PSR sort gate)” value was “high polyreactivity”.
To “QVQLVESGGGLVQAGGSLRLSCAASGRTFTRYAMGLYRQAPGKERELVAGITGRAGSTYYADSVKGRFTISRDNAKNTVYLQMNSLKPEDTAVYYCAADAGYRRSSLYEYDYWGHGTQVTVSS” belongs “low polyreactivity”; to “QVQLVESGGGLVQAGGSLRLSCAASGRTFTRYAMGWYRQAPGKERELVAAISRSGGSTHYADSVKGRFTISRDNAKNTVYLQMNSLKPEDTAVYFCNTVGYRGRSNSRFYYWGQGTQVTVSS”, “high polyreactivity”.
As for “QVQLVESGGGLVQAGGSLRLSCAASGRTFTRYARGWYRQAPGKERELVAVISWSVGSTYYADSVKGRFTISRDNAKNTVYLQMNSLKPEDTAVYYCNSDVLSWSQEYDYWGQGTQVTVSS”, the “polyreactivity (PSR sort gate)” value was “low polyreactivity”.
For the sequence “QVQLVESGGGLVQAGGSLRLSCAASGRTFTRYVMGWYRQAPGKESELVAVISSGGRTYYADSVKGRFTISRDNAKNTVYLQMNSLKPEDTAVYYCAAVTHPAWAVEYDYWGQGTQVTVSS”, the “polyreactivity (PSR sort gate)” value is recorded as “high polyreactivity”.
The entry for “QVQLVESGGGLVQAGGSLRLSCAASGRTFTSNAMGWSRQAPGKERELVAAIDDGGSTNYADSVKGRFTISRDNAKNTVYLQMNSLKPEDTAVYYCNAPITWQYRGFRRRFDYWGQGTQVTVSS” is “low polyreactivity”; for “QVQLVESGGGLVQAGGSLRLSCAASGRTFTSYAMGWYRQAPGKESELVAAIRRSGGSTYADSVKGRFTISRDNAKNTVYLQMNSLKPEDTAVYYCAAGHYWFTKGYHTLYDMDYWGQGTQVTVSS” it is “high polyreactivity”.
Consider “QVQLVESGGGLVQAGGSLRLSCAASGRTFTTIAMGWYRQAPGKERELVSAINSGGSTNYADSVKGRFTISRDNAKNTVYLQMNSLKPEDTAVYYCAKRQRDYSSVFDVDYWGQGTQVTVSS”, for which the “polyreactivity (PSR sort gate)” value is “low polyreactivity”.
Take “QVQLVESGGGLVQAGGSLRLSCAASGRTFTTYAMGWYRQAPGKERELVAAISDTGGITYYADSVKGRFTISRDNAKNTVYLQMNSLKPEDTAVYYCNAESYRAPYDYWGQCTQVTVSS”: the “polyreactivity (PSR sort gate)” value is given as “low polyreactivity”.
